Our source for the binding result and EC50 values is patent publication US20210079084A1 (OPSIDIO, published 2021).

For assay [1], the target named is T1, human stem cell factor isoform SCF248 (human, UniProt P21583 26-273).
T1 construct: also called hSCF248; soluble SCF
The assay is described as follows: binding score, flow cytometry on S1/S14 hSCF248 cells.

Assay [2] deals with T2, human stem cell factor isoform SCF220 (human, UniProt P21583-2 26-245).
T2 construct: whole, on cells; also called hSCF220; membrane SCF
In words: flow cytometry, directly labelled antibody on S1/S14 hSCF220 cells. How it is done: Binding of the labeled antibody to the cells was assessed by flow cytometry.

The target in assay [3] is T2, human stem cell factor isoform SCF220. In words: flow cytometry on S1/S14 hSCF220 cells.
Assay [4] deals with T1, human stem cell factor isoform SCF248. The assay is described as follows: flow cytometry on S1/S14 hSCF248 cells; printed as BC50 (50% maximal binding).
Assay [5] addresses T2, human stem cell factor isoform SCF220. The assay is described as follows: flow cytometry on the SCF220-expressing cell line.

T1 sequence (P21583 26-273 limits assumed): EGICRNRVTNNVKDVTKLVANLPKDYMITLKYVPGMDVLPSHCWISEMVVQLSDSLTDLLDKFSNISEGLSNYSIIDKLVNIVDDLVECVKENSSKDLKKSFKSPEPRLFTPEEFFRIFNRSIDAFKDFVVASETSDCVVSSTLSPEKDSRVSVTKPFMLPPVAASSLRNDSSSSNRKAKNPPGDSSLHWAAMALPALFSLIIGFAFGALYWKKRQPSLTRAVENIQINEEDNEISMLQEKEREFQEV
T2 sequence (P21583 other isoform, or with tags, fused parts or gaps): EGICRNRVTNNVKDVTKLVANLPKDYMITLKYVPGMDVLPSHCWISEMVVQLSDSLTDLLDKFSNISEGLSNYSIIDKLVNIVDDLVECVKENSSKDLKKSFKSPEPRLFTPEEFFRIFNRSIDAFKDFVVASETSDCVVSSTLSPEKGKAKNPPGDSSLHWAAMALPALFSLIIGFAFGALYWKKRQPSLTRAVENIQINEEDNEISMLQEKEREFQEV

B1: 5H10 VH2/VK2 (antibody, V domains shown)
VH: QVQLVQSGAEVKKPGSSVKISCKSSGYAFSSYWMNWVKQRPGQGLEWIGQIYPGDGDTHYNGKFKGKATLTADKSTSTAYMELSSLRSEDTAVYFCSSSNWVGSYWGQGTLVTVSS
VL: DVVMTQSPLSLPVTLGQPASISCKSSQSLLESDGKTYLNWLQQRPGQSPRRLIYLVSRLDSGVPDRFTGSGSGTDFTLKISRVEAEDVGVYYCWQGTHLPQTFGGGTKVEIK
notes: Humanized; Only variable regions are tied to the name
Take B1: the binding result in assay [1] is on record as “binds”.

B2: murine 5H10 antibody (antibody, V domains shown)
VH: QVQLQQSGAELVRPGSSVKISCKSSGYAFSSYWMNWVKQRPGQGLEWIGQIYPGDGDTHYNGKFKGKATLTADKSSSTAYMQLSRLTSEDSAVYFCSSSNWVGSYWGQGTLVTVSA
VL: not shown
notes: Murine monoclonal from a hybridoma, kappa light chain; also called OpSCF; murine parent 5H10
In the case of B2, the binding result in assay [2] is “no binding”.

B3: 5H10 VH3/VK3 (antibody, V domains shown)
VH: QVQLVQSGAEVKKPGSSVKVSCKSSGYAFSSYWMNWVRQRPGQGLEWIGQIYPGDGDTHYNGKFKGKATLTADKSTSTAYMELSSLRSEDTAVYFCSSSNWVGSYWGQGTLVTVSS
VL: DVVMTQSPLSLPVTLGQPASISCKSSQSLLESDGKTYLNWLQQRPGQSPRRLIYLVSRLDSGVPDRFSGSGSGTDFTLKISRVEAEDVGVYYCWQGTHLPQTFGGGTKVEIK
notes: as for B1
In the case of B3, the binding result in assay [3] was “no binding”. Moreover, the EC50 in assay [4] worked out at 0.9 µg/mL.

B4: 5H10 VH0/VK0 (chimeric 5H10) (antibody, V domains shown)
VH: QVQLQQSGAELVRPGSSVKISCKSSGYAFSSYWMNWVKQRPGQGLEWIGQIYPGDGDTHYNGKFKGKATLTADKSSSTAYMQLSRLTSEDSAVYFCSSSNWVGSYWGQGTLVTVSA
VL: not shown
notes: also called chimeric antibody 5H10
In the case of B4, in assay [3], the binding result was “no binding”.

B5: 5H10 VH1/VK1 (antibody, V domains shown)
VH: QVQLVQSGAELKKPGSSVKISCKSSGYAFSSYWMNWVKQRPGQGLEWIGQIYPGDGDTHYNGKFKGKATLTADKSTSTAYMELSSLTSEDSAVYFCSSSNWVGSYWGQGTLVTVSS
VL: DVVMTQSPLTLSVTLGQPASISCKSSQSLLESDGKTYLNWLQQRPGQSPRRLIYLVSRLDSGVPDRFTGSGSGTDFTLKISRVEAEDVGVYYCWQGTHLPQTFGGGTKVEIK
notes: as for B1
In the case of B5, the binding result in assay [1] is recorded as “binds”.

B6: 5H10 VH4/VK3 (antibody, V domains shown)
VH: QVQLVQSGAEVKKPGSSVKVSCKSSGYAFSSYWMNWVRQRPGQGLEWIGQIYPGDGDTHYNGKFKGRVTITADKSTSTAYMELSSLRSEDTAVYFCSSSNWVGSYWGQGTLVTVSS
VL: DVVMTQSPLSLPVTLGQPASISCKSSQSLLESDGKTYLNWLQQRPGQSPRRLIYLVSRLDSGVPDRFSGSGSGTDFTLKISRVEAEDVGVYYCWQGTHLPQTFGGGTKVEIK
notes: as for B1
As to B6, in assay [3], the binding result was “no binding”.

B7: 5H10 VH1/VK3 (antibody, V domains shown)
VH: QVQLVQSGAELKKPGSSVKISCKSSGYAFSSYWMNWVKQRPGQGLEWIGQIYPGDGDTHYNGKFKGKATLTADKSTSTAYMELSSLTSEDSAVYFCSSSNWVGSYWGQGTLVTVSS
VL: DVVMTQSPLSLPVTLGQPASISCKSSQSLLESDGKTYLNWLQQRPGQSPRRLIYLVSRLDSGVPDRFSGSGSGTDFTLKISRVEAEDVGVYYCWQGTHLPQTFGGGTKVEIK
notes: as for B1
As for B7, in assay [5], the binding result is given as “no binding”.

B8: 5H10 VH4/VK2 (antibody, V domains shown)
VH: QVQLVQSGAEVKKPGSSVKVSCKSSGYAFSSYWMNWVRQRPGQGLEWIGQIYPGDGDTHYNGKFKGRVTITADKSTSTAYMELSSLRSEDTAVYFCSSSNWVGSYWGQGTLVTVSS
VL: DVVMTQSPLSLPVTLGQPASISCKSSQSLLESDGKTYLNWLQQRPGQSPRRLIYLVSRLDSGVPDRFTGSGSGTDFTLKISRVEAEDVGVYYCWQGTHLPQTFGGGTKVEIK
notes: as for B1
Turning to B8, the binding result in assay [3] is “no binding”.

B9: 5H10 VH3/VK2 (antibody, V domains shown)
VH: QVQLVQSGAEVKKPGSSVKVSCKSSGYAFSSYWMNWVRQRPGQGLEWIGQIYPGDGDTHYNGKFKGKATLTADKSTSTAYMELSSLRSEDTAVYFCSSSNWVGSYWGQGTLVTVSS
VL: DVVMTQSPLSLPVTLGQPASISCKSSQSLLESDGKTYLNWLQQRPGQSPRRLIYLVSRLDSGVPDRFTGSGSGTDFTLKISRVEAEDVGVYYCWQGTHLPQTFGGGTKVEIK
notes: as for B1
With B9, the binding result in assay [3] was “no binding”.

B10: 5H10 VH5/VK2 (antibody, V domains shown)
VH: QVQLVQSGAEVKKPGSSVKVSCKSSGYAFSSYWMNWVRQRPGQGLEWIGQIYPGDGDTHYNGKFQGRVTITADKSTSTAYMELSSLRSEDTAVYYCSSSNWVGSYWGQGTLVTVSS
VL: DVVMTQSPLSLPVTLGQPASISCKSSQSLLESDGKTYLNWLQQRPGQSPRRLIYLVSRLDSGVPDRFTGSGSGTDFTLKISRVEAEDVGVYYCWQGTHLPQTFGGGTKVEIK
notes: as for B1
For the molecule B10, the binding result in assay [3] is “no binding”.

B11: 5H10 VH5/VK3 (antibody, V domains shown)
VH: QVQLVQSGAEVKKPGSSVKVSCKSSGYAFSSYWMNWVRQRPGQGLEWIGQIYPGDGDTHYNGKFQGRVTITADKSTSTAYMELSSLRSEDTAVYYCSSSNWVGSYWGQGTLVTVSS
VL: DVVMTQSPLSLPVTLGQPASISCKSSQSLLESDGKTYLNWLQQRPGQSPRRLIYLVSRLDSGVPDRFSGSGSGTDFTLKISRVEAEDVGVYYCWQGTHLPQTFGGGTKVEIK
notes: as for B1
In the case of B11, in assay [3], the binding result is listed as “no binding”.

B12: 5H10 VH1/VK2 (antibody, V domains shown)
VH: QVQLVQSGAELKKPGSSVKISCKSSGYAFSSYWMNWVKQRPGQGLEWIGQIYPGDGDTHYNGKFKGKATLTADKSTSTAYMELSSLTSEDSAVYFCSSSNWVGSYWGQGTLVTVSS
VL: DVVMTQSPLSLPVTLGQPASISCKSSQSLLESDGKTYLNWLQQRPGQSPRRLIYLVSRLDSGVPDRFTGSGSGTDFTLKISRVEAEDVGVYYCWQGTHLPQTFGGGTKVEIK
notes: as for B1
With B12, in assay [1], the binding result is listed as “binds”.

B13: 5H10 VH2/VK3 (antibody, V domains shown)
VH: QVQLVQSGAEVKKPGSSVKISCKSSGYAFSSYWMNWVKQRPGQGLEWIGQIYPGDGDTHYNGKFKGKATLTADKSTSTAYMELSSLRSEDTAVYFCSSSNWVGSYWGQGTLVTVSS
VL: DVVMTQSPLSLPVTLGQPASISCKSSQSLLESDGKTYLNWLQQRPGQSPRRLIYLVSRLDSGVPDRFSGSGSGTDFTLKISRVEAEDVGVYYCWQGTHLPQTFGGGTKVEIK
notes: as for B1
For the molecule B13, in assay [5], the binding result is “no binding”.
